Data from patent US20240069033A1, “METHOD FOR SCREENING FOR CANDIDATE MOLECULE CAPABLE OF FORMING COMPLEX IN CONJUNCTION WITH PLURALITY OF TARGET MOLECULES” (Chugai Seiyaku Kabushiki Kaisha, priority 2020, published 2024).

B1: SNAP(C): mRNA Display molecule of SNAP tag C-terminal fragment with C-terminal GS linker (SEQ ID NO: 43) (conjugate)
chain: MVDESFTRQVLWKLLKVVKFGEVISYSHLAALAGNPAATAAVKTALSGNPVPILIPCHRVVQGDLDVGGYEGGLAVKEWLLAHEGHRLGKPGLGPAGGSAFKLEVNGSGSGSGSGSKK
modifications: mRNA display linkage; SNAP (C)-GS5
B2: Kpep-splitUb (N): mRNA Display molecule of splitUb(N) with positively charged K-peptide (SEQ ID NO: 55) (conjugate)
chain: MKVSALKENVSALKEKVSALTEKVSALKEKVSALKEGSGSGSGSMQIFVKTLTGKTATLEVEPSDTIENVKAKIQDKEGIPGSGSGSGSKK
modifications: mRNA display linkage; Kpep-splitUb(N)-GS4
B3: SNAP(N): mRNA Display molecule of SNAP tag N-terminal fragment with C-terminal GS linker (SEQ ID NO: 42) (conjugate)
chain: MDKDCEMKRTTLDSPLGKLELSGCEQGLHRIIFLGKGTSAADAVEVPAPAAVLGGPEPLMQATAWLNAYFHQPEAIEEFPVPALHHPVFQQGSGSGSGSGSKK
modifications: mRNA display linkage; splitSNAP (N)-GS5
B4: Epep-splitUb (N): mRNA Display molecule of splitUb(N) with negatively charged E-peptide (SEQ ID NO: 56) (conjugate)
chain: MKVSALENEVSALEKEVSVLEKEVSALEKEVRALEKGSGSGSGSMQIFVKTLTGKTATLEVEPSDTIENVKAKIQDKEGIPGSGSGSGSKK
modifications: mRNA display linkage; Epep-splitUb(N)-GS4
B5: SNAP(full): mRNA Display molecule of full-length SNAP tag with C-terminal GS linker (SEQ ID NO: 44) (conjugate)
chain: MDKDCEMKRTTLDSPLGKLELSGCEQGLHRIIFLGKGTSAADAVEVPAPAAVLGGPEPLMQATAWLNAYFHQPEAIEEFPVPALHHPVFQQESFTRQVLWKLLKVVKFGEVISYSHLAALAGNPAATAAVKTALSGNPVPILIPCHRVVQGDLDVGGYEGGLAVKEWLLAHEGHRLGKPGLGPAGGSAFKLEVNGSGSGSGSGSKK
modifications: mRNA display linkage; SNAP (full)-GS5

Tests used:
[1] = Complementation assay of splitSNAP-tag using mRNA display (reaction with SNAP-Biotin, streptavidin pull-down, qPCR); type: biochemical; details: for Recovery rate (%): apparent recovery rate corrected with display efficiency; for Recovered nucleic acid amount (molecules): reaction with SNAP-Biotin 37° C. 30 minutes, streptavidin pull-down, qPCR; for Apparent recovery rate (%): recovered / theoretical value of added nucleic acid amount
Protocol: To this solution, ¼ amount of a PBS solution containing 5 mM DTT, 2500 nM SNAP-Biotin (New England BioLabs, Inc.) was added, and the enzymatic reaction was performed at 37° C. for 30 minutes.

[2] = tested on: anti-ubiquitin antibody fixed bead; experiment: Complementation assay of splitUbiquitin with Kpep/Epep charged peptides using mRNA display; type: binding; details: for Recovered nucleic acid amount (molecules): Display molecules 0.2 μM each (pairs) or 0.4 μM (alone), anti-ubiquitin antibody beads, qPCR; for Recovery rate (%): apparent recovery rate corrected with display efficiency; for Apparent recovery rate (%): recovered/input nucleic acid amount
Protocol: Next, Display molecules composed of constructs (SEQ ID NO: 55 (P-11) to SEQ ID NO: 57 (P-13)) in which splitUb(N) and splitUb(C) each were added with a charged peptide sequence (K-peptide containing an amino acid having a positive charge) (sometimes referred to as “Kpep”) or E-peptide containing an amino acid having a negative charge (“Epep”)) were prepared. When the added peptides are attracted to each other by charges, splitUbs become in proximity to each other and recovered by an anti-ubiquitin antibody. Conversely, when the added peptides are repelled to each other by charges, splitUbs are not recovered. Once this is validated, the complexation of molecules added to splitUbs can be evaluated with the recovery rate through ubiquitin and anti-ubiquitin antibodies.
Reactions were made under the same conditions as in condition 1, except that, in condition 2, the Display molecule of Epep-splitUb(N) and the Display molecule of Epep-splitUb(C) were added at 0.2 μM; in condition 3, the Display molecule of Kpep-splitUb(N) was added at 0.4 μM; in condition 4, the Display molecule of Epep-splitUb(N) was added at 0.4 μM; and in condition 5, the Display molecule of Epep-splitUb(C) was added at 0.4 μM.

Molecule | Recovery rate (%) [1] [%] | Recovered nucleic acid amount (molecules) [1] [molecules] | Apparent recovery rate (%) [1] [%] | Recovered nucleic acid amount (molecules) [2] [molecules] | Recovery rate (%) [2] [%] | Apparent recovery rate (%) [2] [%] | recovery rate higher than other controls ([1]; in the presence of SNAP-Biotin)
B1 | 0.035 | 6.76E+06 | 0.007 |  |  |  | 
B2 |  |  |  | 2.28E+06 | 0.0008 | 0.0005 | 
B3 | 0.097 | 6.26E+07 | 0.062 |  |  |  | 
B4 |  |  |  | 3.77E+05 | 0.0004 | 0.0001 | 
B5 | 14.364 | 4.78E+09 | 4.740 |  |  |  | at least 50 times
